For data set [1], the target named is GIT1 FAT domain (aa 640-770) (mouse) (UniProt Q68FF6). Nature of the data set: ITC.
For data set [2], the target named is FITC-labelled β-Pix GBD peptide, wild type (mouse). Nature of the data set: fluorescence polarisation.
The data set “SEC-MALS” deals with the molecule itself. Briefly: SEC-MALS.
The target in the next data set is T1, GIT1 SHD domain (mouse, UniProt Q68FF6 260-371).
T1 sequence (looked up): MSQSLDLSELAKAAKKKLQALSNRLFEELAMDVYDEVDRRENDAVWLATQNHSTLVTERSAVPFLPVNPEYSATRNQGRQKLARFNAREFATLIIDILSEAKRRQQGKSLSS
Briefly: ITC.

The target in data set [3] is T2, GIT1 GAP-ANK-SHD (GAS) tandem (mouse, UniProt Q68FF6 1-371).
T2 sequence (looked up): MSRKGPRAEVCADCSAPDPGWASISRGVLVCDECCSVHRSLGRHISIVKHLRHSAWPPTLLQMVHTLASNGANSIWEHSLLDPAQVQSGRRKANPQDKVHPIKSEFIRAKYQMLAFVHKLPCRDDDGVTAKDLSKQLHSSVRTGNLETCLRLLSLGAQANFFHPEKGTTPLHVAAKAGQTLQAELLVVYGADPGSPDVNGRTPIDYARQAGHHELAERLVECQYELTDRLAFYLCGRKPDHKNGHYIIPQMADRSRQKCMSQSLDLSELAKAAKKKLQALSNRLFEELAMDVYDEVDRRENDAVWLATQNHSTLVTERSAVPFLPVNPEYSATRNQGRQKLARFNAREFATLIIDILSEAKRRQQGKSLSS
Briefly: fluorescence polarisation.

Data set [4] has as its target T2, GIT1 GAP-ANK-SHD (GAS) tandem. Briefly: ITC.

No end group written: not given here. *: point of attachment. FITC = O=C1OC2(c3ccc(O)cc3Oc3cc(O)ccc32)c2ccc(NC(=S)*)cc21

GIT1 FAT domain (aa 640-770) (mouse), sequence (Q68FF6 640-770): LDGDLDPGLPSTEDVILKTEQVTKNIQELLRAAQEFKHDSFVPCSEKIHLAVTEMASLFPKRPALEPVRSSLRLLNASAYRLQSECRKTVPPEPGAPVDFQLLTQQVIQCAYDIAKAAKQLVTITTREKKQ

“Paxillin LD4 motif (aa 261-282) (peptide)”: the Kd in data set [1] turned out to be 3000 nM.

Take “GIT2 GAP-ANK-SHD (GAS) tandem, wild type, purified (domain or fragment)”: the equilibrium dissociation constant (Kd) in data set [2] worked out at 27 nM.

In data set [1], Paxillin LD2 motif (peptide) registered an equilibrium dissociation constant (Kd) of 164000 nM.

B1: β-Pix coiled-coil domain, wild type (domain or fragment, mouse, UniProt Q9ES28-4 691-751, looked up)
chain: EEKSLVDTVYALKDEVQELRQDNKKMKKSLEEEQRARKDLEKLVRKVLKNMNDPAWDETNL
Regarding B1, in the data set “SEC-MALS”, the “stoichiometry N” value turned out to be 3.

B2: β-Pix 494-555 (domain or fragment, mouse, UniProt Q9ES28-4 599-660, looked up)
chain: DLSKSPKTMKKLLPKRKPERKPSDEEFAVRKSTAALEEDAQILKVIEAYCTSAKTRQTLNSS
On to B2, for which, in the data set with GIT1 SHD domain, the Kd is about 150 nM.

In data set [3], {FITC}-ALEEDAQILKVIEADCTSAKT (peptide, UniProt Q9ES28-4 633-653, looked up) [FITC-labelled β-Pix GBD Y542D peptide] came in with a Kd of about 76400 nM.

ALEEDAQILKVIEAYCTSAKT [β-Pix GBD peptide (aa 528-548)]: the results for the Kd (in data set [4]; in the data set with GIT1 SHD domain) were about 15 nM and about 180 nM, respectively.

B3: GIT1 coiled-coil domain, wild type (domain or fragment, mouse, UniProt Q68FF6 426-483, looked up)
chain: SDGAVTLQEYLELKKALATSEAKVQQLMKVNSSLSDELRRLQREIHKLQAENLQLRQP
Turning to B3, the “stoichiometry N” value in “SEC-MALS” turned out to be 2.

Source of the values: article doi:10.1101/2019.12.18.881771 (bioRxiv, 2019).
